From US20240252614A1 (Pfizer, published 2024)

Key:
hMPV049 [1] = biological target: T1, hMPV049 (hMPV A, UniProt Q6WB98 19-102); experiment: BLI, 50C stress
T1 construct: E146C-T160C
Experimental: (§1) The OCTET HTX (Sartorius, Gottingen, Germany) instrument was used to evaluate the expression and conformational integrity for each mutant. All measurements were conducted at 30° C. temperature in 96-well black plates (Corning, Corning, NY) with a final volume of 240 μL per well at a constant agitation rate of 1000 RPM.
(§2) Conformation integrity of hMPV A F protein mutants were evaluated by thermal stress experiments. Crude cell culture supernatants were normalized based on the results of the titer quantitation and then incubated for 1 hour at room temperature and two higher temperatures. […] Anti-Human IgG Fc Capture (AHC) biosensors were first equilibrated in PB before being dipped into more PB to establish the initial baseline. […] The mAb-bound biosensors were then dipped into the thermal stressed cell culture supernatants for 5 minutes. The kinetics analysis was done by OCTET data analysis software (version 12.0, Sartorius) based on curve fitting of the entire associate step.

hMPV053 [2] = biological target: T2, hMPV053 (hMPV A, UniProt Q6WB98 19-102); experiment: BLI, 50C stress
T2 construct: L110P
Experimental: as §1, §2

hMPV055 [3] = biological target: T3, hMPV055 (hMPV A, UniProt Q6WB98 19-102); experiment: BLI, 50C stress
T3 construct: N145P
Experimental: as §1, §2

hMPV063 [4] = biological target: T4, hMPV063 (hMPV A, UniProt Q6WB98 19-102); experiment: BLI, 50C stress
T4 construct: G239A
Experimental: as §1, §2

hMPV044 = biological target: T5, hMPV044 (hMPV A, UniProt Q6WB98 19-102); experiment: BLI, 50C stress
T5 construct: T411C-Q434C
Experimental: as §1, §2

hMPV046 = biological target: T6, hMPV046 (hMPV A, UniProt Q6WB98 19-102); experiment: BLI, 50C stress
T6 construct: A140C-S149C
Experimental: as §1, §2

[5] = biological target: T7, stabilized hMPV F protein trimer in pre-fusion conformation (human metapneumovirus); experiment: ELISA, F protein coated
T7 construct: also called preF-hMPV; hMPV pre-fusion F protein
Experimental: (§3) Briefly, 96-well microtiter plates were coated with 100 μL/well of individual F protein at 2 μg/mL, and then incubated at 4° C. overnight. After washing with 0.01M TBS/0.1% Brij-35, the plates were blocked with 5% non-fat milk for 1 hr at RT. […] After 3 washes with 0.01M TBS/0.1% Brij-35, 100 μL/well of secondary antibody (HRP-anti-human Fc) in a 1:3000 dilution was added to the plates and incubated for 1 hr RT. After 3 washes with 0.01M TBS/0.1% Brij-35, 100 μL/well of TMB-ELISA Substrate Solution was added to the plates. The reaction was stopped with addition of 100 μL/well of 2N H2SO4 after 2 minutes. The plates were then read on a SpectraMax microplate reader with SoftMax Pro software at OD 450 nm (Molecular Devices). The data was analyzed with Graphpad Prism software.

hMPV047 = biological target: T8, hMPV047 (hMPV A, UniProt Q6WB98 19-102); experiment: BLI, 50C stress, vs WT Control
T8 construct: L141C-A159C
Experimental: as §1, §2

hMPV048 = biological target: T9, hMPV048 (hMPV A, UniProt Q6WB98 19-102); experiment: BLI, 50C stress, vs WT Control
T9 construct: L141C-A161C
Experimental: as §1, §2

hMPV049 [6] = biological target: T1, hMPV049; experiment: BLI, 50C stress, vs WT Control
Experimental: as §1, §2

hMPV050 = biological target: T10, hMPV050 (hMPV A, UniProt Q6WB98 19-102); experiment: BLI, 50C stress, vs WT Control
T10 construct: V148C-L158C
Experimental: as §1, §2

hMPV052 = biological target: T11, hMPV052 (hMPV A, UniProt Q6WB98 19-102); experiment: BLI, 50C stress, vs WT Control
T11 construct: L66P
Experimental: as §1, §2

hMPV053 [7] = biological target: T2, hMPV053; experiment: BLI, 50C stress, vs WT Control
Experimental: as §1, §2

hMPV054 = biological target: T12, hMPV054 (hMPV A, UniProt Q6WB98 19-102); experiment: BLI, 50C stress, vs WT Control
T12 construct: S132P
Experimental: as §1, §2

hMPV055 [8] = biological target: T3, hMPV055; experiment: BLI, 50C stress, vs WT Control
Experimental: as §1, §2

hMPV058 = biological target: T13, hMPV058 (hMPV A, UniProt Q6WB98 19-102); experiment: BLI, 50C stress, vs WT Control
T13 construct: L187P
Experimental: as §1, §2

hMPV059 = biological target: T14, hMPV059 (hMPV A, UniProt Q6WB98 19-102); experiment: BLI, 50C stress, vs WT Control
T14 construct: V449P
Experimental: as §1, §2

hMPV060 = biological target: T15, hMPV060 (hMPV A, UniProt Q6WB98 19-102); experiment: BLI, 50C stress, vs WT Control
T15 construct: A459P
Experimental: as §1, §2

hMPV061 = biological target: T16, hMPV061 (hMPV A, UniProt Q6WB98 19-102); experiment: BLI, 50C stress, vs WT Control
T16 construct: G106A
Experimental: as §1, §2

hMPV062 = biological target: T17, hMPV062 (hMPV A, UniProt Q6WB98 19-102); experiment: BLI, 50C stress, vs WT Control
T17 construct: G121A
Experimental: as §1, §2

hMPV063 [9] = biological target: T4, hMPV063; experiment: BLI, 50C stress, vs WT Control
Experimental: as §1, §2

hMPV066 = biological target: T18, hMPV066 (hMPV A, UniProt Q6WB98 19-102); experiment: BLI, 50C stress, vs WT Control
T18 construct: T49I
Experimental: as §1, §2

hMPV067 = biological target: T19, hMPV067 (hMPV A, UniProt Q6WB98 19-102); experiment: BLI, 50C stress, vs WT Control
T19 construct: S149T
Experimental: as §1, §2

hMPV068 = biological target: T20, hMPV068 (hMPV A, UniProt Q6WB98 19-102); experiment: BLI, 50C stress, vs WT Control
T20 construct: A159V
Experimental: as §1, §2

hMPV069 = biological target: T21, hMPV069 (hMPV A, UniProt Q6WB98 19-102); experiment: BLI, 50C stress, vs WT Control
T21 construct: S291I
Experimental: as §1, §2

hMPV071 = biological target: T22, hMPV071 (hMPV A, UniProt Q6WB98 19-102); experiment: BLI, 50C stress, vs WT Control
T22 construct: T365I
Experimental: as §1, §2

hMPV077 = biological target: T23, hMPV077 (hMPV A, UniProt Q6WB98 19-102); experiment: BLI, 50C stress, vs WT Control
T23 construct: Q476C, S477C
Experimental: as §1, §2

hMPV A F WT Control = hMPV A F WT Control (hMPV A, UniProt Q6WB98 19-102); experiment: BLI, 50C stress, vs WT Control
Experimental: as §1, §2

hMPV043 = biological target: T24, hMPV043 (hMPV A, UniProt Q6WB98 19-102); experiment: BLI, 50C stress, vs WT Control
T24 construct: G366C-D454C
Experimental: as §1, §2

hMPV045 = biological target: T25, hMPV045 (hMPV A, UniProt Q6WB98 19-102); experiment: BLI, 50C stress, vs WT Control
T25 construct: I137C-A159C
Experimental: as §1, §2

[10] = biological target: T26, PIV1 F literature prefusion comparison (PIV1); experiment: BLI, no stress
T26 construct: F113G, F114S, A466I, S473I (Stewart-Jones et al. 2018)
Experimental: (§4) Conformation integrity of PIV1 F protein mutants were evaluated by a thermal stress experiment. Crude cell culture supernatants were normalized based on the results of the titer quantitation and then incubated for 1 hour at room temperature and two higher temperatures. For the initial testing of PIV1 mutants, the two temperatures were 50° C. and 53° C. […] Anti-Human IgG Fc Capture (AHC) biosensors were first equilibrated in PB for before being dipped into more PB to establish the initial baseline. […] The mAb-bound biosensors were then dipped into the thermal stresses cell culture supernatants for 5 minutes.

PIV1069 = biological target: T27, PIV1069 (PIV1); experiment: BLI, no stress
T27 construct: F113G, F114S, A466L, S473L, G134A
Experimental: as §4

PIV1070 = biological target: T28, PIV1070 (PIV1); experiment: BLI, no stress
T28 construct: F113G, F114S, A466I, S473I, G134A
Experimental: as §4

[11] = biological target: T29, stabilized hPIV1 F protein trimer in pre-fusion conformation (human parainfluenza virus 1); experiment: ELISA, F protein coated
T29 construct: also called preF-hPIV1; HPIV1 pre-fusion F protein
Experimental: as §3

B1: hMPV-2 mAb (antibody, V domains shown)
VH: QVQLQQSGAEVKKPGASVKVSCKASGYTFTSYGISWVRQAPGQGLEWMGWISGYNGNTNYAQTFQGTFTMTTDTSTSTAYMELRRLRSGDTAVYYCARDRYYASGSYNGMDVWGQGTTVTVSS
VL: QSALTQPPSASGAPGQRVTVSCSGSSSNVGSSSVYWYQQLPGTAPKLLIYRNNQRPSGVPDRFSGSKSGTSASLAISGLRSEDEADYYCAAWDDSLSGWVFGGGTKLTVLG
notes: human IgG1
Response Shift (hMPV049 [1]): 0.549 nm | Response Shift (hMPV053 [2]): 0.566 nm | Response Shift (hMPV055 [3]): 0.194 nm | Response Shift (hMPV063 [4]): 0.685 nm | Response Shift (hMPV044): 0.737 nm | Response Shift (hMPV046): 0.472 nm | EC50 [5]: 0.097 nM | Fold change vs WT (hMPV047): -0.1 fold | Fold change vs WT (hMPV048): 1.5 fold | Fold change vs WT (hMPV049 [6]): 1.9 fold | Fold change vs WT (hMPV050): 0.5 fold | Fold change vs WT (hMPV052): 2.2 fold | Fold change vs WT (hMPV053 [7]): 2 fold | Fold change vs WT (hMPV054): 1.6 fold | Fold change vs WT (hMPV055 [8]): 0.7 fold | Fold change vs WT (hMPV058): 1.7 fold | Fold change vs WT (hMPV059): 1.6 fold | Fold change vs WT (hMPV060): 2.5 fold | Fold change vs WT (hMPV061): 2 fold | Fold change vs WT (hMPV062): 1.6 fold | Fold change vs WT (hMPV063 [9]): 2.4 fold | Fold change vs WT (hMPV066): 2.6 fold | Fold change vs WT (hMPV067): 2.3 fold | Fold change vs WT (hMPV068): 1.6 fold | Fold change vs WT (hMPV069): 1.6 fold | Fold change vs WT (hMPV071): 2.4 fold | Fold change vs WT (hMPV077): 2.2 fold | Fold change vs WT (hMPV A F WT Control): 1 fold | Fold change vs WT (hMPV043): 2 fold | Fold change vs WT (hMPV045): 0.4 fold

B2: PIV1-8 mAb (antibody, V domains shown)
VH: QVQLVQSGAEVKKPGSSVKVSCEASGGTFSNYVISWVRQAPGQGLEWMGGIIPVFATAKYAQKFQGRVTIIADQSTNTAYLELSSLRSDDTAVYFCASVDSGGTWWDAFAIWGQGTMVTVSS
VL: QAVVTQPRSVSGSPGQAVTISCTGTSSDVGGYNYVSWYQHHPGKAPKLIIYDVTKRPSGVPDRFSGSKSGNTASLTISGLQTEYEADYYCCSYAGSYTLVFGGGTKLTVLG
notes: human IgG1; also called hPIV1-8 mAb; hPIV1-8
Response Shift [10]: 0.769 nm | Response Shift (PIV1069): 0.857 nm | Response Shift (PIV1070): 0.876 nm | EC50 [11]: 0.103 nM
